These results are taken from publication PMC3907030, “Using phage display selected antibodies to dissect microbiomes for complete de novo genome sequencing of low abundance microbes” (BMC Microbiology, 2013).

Holding throughout (settings): partners not purified
The target of test [1] is T1, L. acidophilus S-layer A protein (SlpA), on L. acidophilus ATCC 4356 cells (Lactobacillus acidophilus ATCC 4356, UniProt P35829).
T1 construct: the flow cytometry itself was done on whole bacteria; also called S-layer protein A; Surface layer protein A; source: endogenous, on intact L. acidophilus ATCC 4356 cells
In words: flow cytometry on cells; scFv culture supernatant (200 μl, unpurified) incubated with 10^6-10^7 washed bacteria in PBS, 1 h at RT; detected with anti-SV5-PE; BD LSRII.

For test [2], the target named is T2, L. acidophilus S-layer A protein (Lactobacillus acidophilus (ATCC 4356; …, UniProt P35829).
T2 construct: S-layer A protein (SlpA) of Lactobacillus acidophilus, Uniprot P35829; band of ~45 kDa; On the bacterial surface in flow cytometry; denatured (SDS, β-mercaptoethanol, boiled) on the blot; The MS search used an L. acidophilus NCFM database; also called SlpA; S-layer protein A
Nature of the test: flow cytometry on cells; 200 μl scFv culture supernatant added to 10^6-10^7 washed bacteria in PBS, 1 h at RT; detected with anti-SV5-PE; BD LSRII.

In test [3] the target is T3, L. acidophilus S-layer A protein (SlpA), on L. acidophilus ATCC 832 cells (Lactobacillus acidophilus ATCC 832; …, UniProt P35829).
T3 construct: the flow cytometry was done on whole bacteria; also called L. acidophilus st; source: endogenous, on intact L. acidophilus ATCC 832 cells
In words: flow cytometry on cells; scFv culture supernatant (200 μl, unpurified) incubated with 10^6-10^7 washed bacteria in PBS, 1 h at RT; detected with anti-SV5-PE; BD LSRII.

T3 sequence (P35829 25-444): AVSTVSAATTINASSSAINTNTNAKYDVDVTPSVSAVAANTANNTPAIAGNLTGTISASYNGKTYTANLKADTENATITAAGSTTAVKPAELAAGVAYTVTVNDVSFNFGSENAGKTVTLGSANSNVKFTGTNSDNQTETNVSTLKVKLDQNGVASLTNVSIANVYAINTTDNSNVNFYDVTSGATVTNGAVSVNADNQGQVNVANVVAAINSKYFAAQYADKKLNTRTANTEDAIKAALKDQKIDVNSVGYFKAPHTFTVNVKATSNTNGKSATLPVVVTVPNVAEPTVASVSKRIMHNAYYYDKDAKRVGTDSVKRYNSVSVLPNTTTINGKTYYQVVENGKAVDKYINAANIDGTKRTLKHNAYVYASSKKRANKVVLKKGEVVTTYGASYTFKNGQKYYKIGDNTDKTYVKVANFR
T1 sequence (P35829 25-444): as above
T2 sequence (P35829 25-444): as above

B1: α-La2 scFv (scFv, V domains shown)
VH: EVQLVETGGGLVKPGGSLRLSCAASGFTLSNAWMHWVRQAPGKGLEWVGRIRRKTDGGTTDYAAPVKGRFTISRDDSKNTLYLQMNSLKTEDTAVYYCSTDDYGGNWGQGTLVTVSS
VL: QSVLTQPASVSGSPGQSITISCTGTSSDVGSYNYVSWYQQHPGKAPKLMIYDVSNRPSGVSNRFSGSKSGNTASLTISGLQAEDEADYYCSSYTSSSTNVFGTGTQLTVL
notes: residues before the VL; VL of α-La2; linker between VL and VH; VH of α-La2; residues between the VH and the SV5 tag; Expressed from pEP-GFP11 with an N-terminal PelB leader and C-terminal SV5, 6x His and GFP strand 11 tags; limits of VL, linker and VH and the reading of GAHA and AS as vector-derived residues are my surmise; also called anti-La2; source: E. coli …
Consider B1, for which the binding result in test [1] is reported as “binds”.

B2: α-La2 scFv (scFv, V domains shown)
VH: EVQLVETGGGLVKPGGSLRLSCAASGFTLSNAWMHWVRQAPGKGLEWVGRIRRKTDGGTTDYAAPVKGRFTISRDDSKNTLYLQMNSLKTEDTAVYYCSTDDYGGNWGQGTLVTVSS
VL: QSVLTQPASVSGSPGQSITISCTGTSSDVGSYNYVSWYQQHPGKAPKLMIYDVSNRPSGVSNRFSGSKSGNTASLTISGLQAEDEADYYCSSYTSSSTNVFGTGTQLTVL
notes: The vector adds an N-terminal PelB leader; also called anti-La2; source: E. coli BL21 Gold, pEP-GFP11, culture supernatant; not shown: SV5, C-terminal, kept
Regarding B2, in test [2], the binding result is “binds”.

B3: α-La3 scFv (scFv, V domains shown)
VH: QVQLQESGPGLVKPSETLSLTCAISGDSVSSNSAAWNWIRQSPSRGLEWLGRTYYRSKWYNDYAVSVKSRITINPDTSKNQFSLQLNSVTPEDTAVYYCATGDAFDMWGQGTMVTVSS
VL: SYVLTQPPSVSGTPGQRVTISCSGSSSNIERNYVYWYQQLPGTAPKLLIYRNNQRPSGVPDRFSGSKSGTSASLAISGLRSEDEADYYCAAWDDSQNAYVFGTGTKLTVL
notes: residues before the VL; VL of α-La3; linker between VL and VH; VH of α-La3; residues between the VH and the SV5 tag; Expressed from pEP-GFP11 with an N-terminal PelB leader and C-terminal SV5, 6x His and GFP strand 11 tags; limits of VL, linker and VH and the reading of GAHA and AS as vector-derived residues are my surmise; also called anti-La3; source: E. coli …
In the case of B3, the binding result in test [1] and in test [3] was “binds” each time.

B4: α-La3 scFv (scFv, V domains shown)
VH: QVQLQESGPGLVKPSETLSLTCAISGDSVSSNSAAWNWIRQSPSRGLEWLGRTYYRSKWYNDYAVSVKSRITINPDTSKNQFSLQLNSVTPEDTAVYYCATGDAFDMWGQGTMVTVSS
VL: SYVLTQPPSVSGTPGQRVTISCSGSSSNIERNYVYWYQQLPGTAPKLLIYRNNQRPSGVPDRFSGSKSGTSASLAISGLRSEDEADYYCAAWDDSQNAYVFGTGTKLTVL
notes: The vector adds an N-terminal PelB leader; source: E. coli BL21 Gold, pEP-GFP11, culture supernatant; not shown: SV5, C-terminal, kept
For the molecule B4, the binding result in test [2] is “binds”.

B5: α-La1 scFv (scFv, V domains shown)
VH: QVQLQQSGPGLVKPSQTLSLACAISGDSVSSNSAAWNWIRQSPSRGLEWLGRIYYRSKWYNDYAVSVKSRITINPDTSKNQFSLQLNSVTPEDTAVYYCARERYGAFDIWGQGTMVTVSS
VL: SYELTQPPSASGTPGQRVTISCSGSSSNIGSNYVYWYQQLPGTAPKLLIYRNNQRPSGVPDRFSGSKSGTSASLAITGLQAEDEADYYCQSYDSSLSGYVFGTRTKLTVL
notes: residues before the VL; VL of α-La1; linker between VL and VH; VH of α-La1; residues between the VH and the SV5 tag; Expressed from pEP-GFP11 with an N-terminal PelB leader and C-terminal SV5, 6x His and GFP strand 11 tags; limits of VL, linker and VH and the reading of GAHA and AS as vector-derived residues are my surmise; also called anti-La1; α-La scFv; source: …
Consider B5, for which the binding result in test [1] and in test [3] was “binds” throughout.

B6: α-La4 scFv (scFv, V domains shown)
VH: QVQLQQSGPGLVKPSQILSLTCAISGDSVSSNSADWNWIRQSPSRGLEWLGRTYYRSKWYNDYAVLVKSRITINPDTSKNQFSLQLNSVTPEDTAVYYCARGSLGAFDIWGQGTMVTVSS
VL: QAVVTQEPSASETPGQRVTISCSGSDSNIGSNYVYWYQQVPGTAPKLVIYRNNQRPSGVPDRFSGSKSGTSASLGIRGLQSEDEADYYCAAWDDSVSGWVFGGRTKLTVL
notes: residues before the VL; VL of α-La4; linker between VL and VH; VH of α-La4; residues between the VH and the SV5 tag; Expressed from pEP-GFP11 with an N-terminal PelB leader and C-terminal SV5, 6x His and GFP strand 11 tags; limits of VL, linker and VH and the reading of GAHA and AS as vector-derived residues are my surmise; also called anti-La4; source: E. coli …
For the molecule B6, the binding result in test [1] and in test [3] was “binds” each time.

B7: α-La4 scFv (scFv, V domains shown)
VH: QVQLQQSGPGLVKPSQILSLTCAISGDSVSSNSADWNWIRQSPSRGLEWLGRTYYRSKWYNDYAVLVKSRITINPDTSKNQFSLQLNSVTPEDTAVYYCARGSLGAFDIWGQGTMVTVSS
VL: QAVVTQEPSASETPGQRVTISCSGSDSNIGSNYVYWYQQVPGTAPKLVIYRNNQRPSGVPDRFSGSKSGTSASLGIRGLQSEDEADYYCAAWDDSVSGWVFGGRTKLTVL
notes: as for B4
B7: in test [2], the binding result was “binds”.
